Laboratory results reported in patent publication US20250041437A1 (SUN PHARMA ADVANCED RESEARCH, published 2025).

Columns and labels:
[1] = target: T1, human MUC1 on cells (DA3-TM transfectants and human cancer cell lines SKOV3, COLO357, HT29 and others) (human, UniProt P15941 24-1255); assay: flow cytometry on SKOV-3 cells, geometric mean against concentration
T1 construct: also called MUC1-SEA; surface MUC1

[2] = target: T1, human MUC1 on cells (DA3-TM …); assay: flow cytometry, dose-dependent binding on MUC1 positive DA3-TM cells
[3] = target: T1, human MUC1 on cells (DA3-TM …); assay: flow cytometry on DA3-TM cells; table row 4 of 5, about 1.2 nM by the matching point in FIG. 3A
[4] = target: T1, human MUC1 on cells (DA3-TM …); assay: flow cytometry on DA3-TM cells; table row 3 of 5, about 3.7 nM by the matching point in FIG. 3A
[5] = target: T1, human MUC1 on cells (DA3-TM …); assay: flow cytometry on DA3-TM cells; table row 5 of 5, about 0.4 nM by the matching point in FIG. 3A
[6] = target: T1, human MUC1 on cells (DA3-TM …); assay: flow cytometry on DA3-TM cells; table row 2 of 5, about 11 nM by the matching point in FIG. 3A

T1 sequence (P15941 24-1255 limits assumed): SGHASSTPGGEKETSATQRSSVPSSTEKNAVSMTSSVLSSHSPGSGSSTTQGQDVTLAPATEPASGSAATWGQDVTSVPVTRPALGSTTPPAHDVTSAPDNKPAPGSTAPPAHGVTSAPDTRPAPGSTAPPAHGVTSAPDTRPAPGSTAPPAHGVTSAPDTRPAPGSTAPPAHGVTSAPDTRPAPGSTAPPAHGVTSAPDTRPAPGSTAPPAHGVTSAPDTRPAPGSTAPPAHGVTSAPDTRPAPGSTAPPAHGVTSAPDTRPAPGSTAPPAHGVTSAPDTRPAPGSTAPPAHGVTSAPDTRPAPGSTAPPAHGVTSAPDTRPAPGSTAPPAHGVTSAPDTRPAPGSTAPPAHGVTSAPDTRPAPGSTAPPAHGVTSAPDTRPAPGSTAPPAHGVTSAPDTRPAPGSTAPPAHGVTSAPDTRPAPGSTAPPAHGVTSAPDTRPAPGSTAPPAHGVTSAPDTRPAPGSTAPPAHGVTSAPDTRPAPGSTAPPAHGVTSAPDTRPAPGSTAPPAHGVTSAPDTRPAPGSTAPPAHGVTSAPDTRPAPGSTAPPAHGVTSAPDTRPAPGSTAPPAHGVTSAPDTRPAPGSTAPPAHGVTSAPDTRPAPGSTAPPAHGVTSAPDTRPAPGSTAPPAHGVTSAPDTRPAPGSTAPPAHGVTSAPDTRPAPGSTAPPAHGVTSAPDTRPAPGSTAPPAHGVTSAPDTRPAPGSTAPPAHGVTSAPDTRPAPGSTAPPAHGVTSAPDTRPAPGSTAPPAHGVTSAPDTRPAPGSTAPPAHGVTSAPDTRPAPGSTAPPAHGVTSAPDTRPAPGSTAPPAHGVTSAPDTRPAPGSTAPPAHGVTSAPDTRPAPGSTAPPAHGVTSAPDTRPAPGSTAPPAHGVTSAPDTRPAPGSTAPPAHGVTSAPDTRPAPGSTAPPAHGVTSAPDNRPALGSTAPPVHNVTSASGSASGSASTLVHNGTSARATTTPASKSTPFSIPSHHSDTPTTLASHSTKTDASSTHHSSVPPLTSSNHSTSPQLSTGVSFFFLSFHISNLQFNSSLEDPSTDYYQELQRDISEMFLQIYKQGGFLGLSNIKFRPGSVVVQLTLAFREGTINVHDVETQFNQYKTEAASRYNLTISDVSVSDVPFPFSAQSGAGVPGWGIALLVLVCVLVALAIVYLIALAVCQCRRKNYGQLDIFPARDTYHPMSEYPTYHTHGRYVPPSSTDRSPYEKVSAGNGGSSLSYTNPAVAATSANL

Binder | EC50 (read off the curve) [1] [nM] | Kd [2] [nM] | Geometric Mean : FL6-A [3] | Geometric Mean : FL6-A [4] | Geometric Mean : FL6-A [5] | Geometric Mean : FL6-A [6]
humanized IgG1 anti-MUC1-SEA mAb (HM5 LM4) (antibody, V domains shown, also called Humanized anti-MUC1 SEA IgG1; humanized IgG anti-MUC1-SEA mAb) VH: EIQLVQSGAEVKKPGSSVKVSCKVTGHSITRGSSWHWMRQAPGQGLEWIGYIHYGGGTSYNPSLKSRITITRDTSTNTFYMELSSLRSEDTAFYFCARYSYDITYRWFFDVWGQGTLVTVSS VL: DIQMTQSPSTLSASVGDRVTITCRASQNIGTSIHWYQQKPGKAPKLLIKYASESISGVPSRFSGSGSGTEFTLTISSLQPDDFATYYCQQNNNWPLTFGQGTKVEIKR | ~3 | 1 | – | – | – | –
HM2 LM1 variant of humanized anti-MUC1 antibody SP66 (antibody, V domains shown, Humanized IgG expressed in CHO cells; only variable domains tied to the variant) VH: EIQLVQSGAEVKKPGSSVKVSCKVTGHSITRGSSWHWMRQAPGQGLEWIGYIHYGGGTSYNPSLKSRITITRDTSTNTAYMELSSLRSEDTAFYFCARYSYDITYRWFFDVWGQGTLVTVSS VL: DIQMTQSPSTLSASVGDRVTITCRASQNIGTSIHWFQQKPGKAPKLLIKRASESISGVPSRFSGSGSGTEFTLTISSLQPDDFATYYCQQNNNWPLTFGQGTKVEVK | – | 14.5 | 1870 | 4900 | 727 | 10000
HM2 LM2 variant of humanized anti-MUC1 antibody SP66 (antibody, V domains shown, Humanized IgG expressed in CHO cells; only variable domains tied to the variant) VH: EIQLVQSGAEVKKPGSSVKVSCKVTGHSITRGSSWHWMRQAPGQGLEWIGYIHYGGGTSYNPSLKSRITITRDTSTNTAYMELSSLRSEDTAFYFCARYSYDITYRWFFDVWGQGTLVTVSS VL: DIQMTQSPSTLSASVGDRVTITCRASQNIGTSIHWYQQKPGKAPKLLIKRASESISGVPSRFSGSGSGTEFTLTISSLQPDDFATYYCQQNNNWPLTFGQGTKVEVK | – | 3.2 | 6400 | 11800 | 2860 | 15000
HM3 LM2 variant of humanized anti-MUC1 antibody SP66 (antibody, V domains shown, Humanized IgG expressed in CHO cells; only variable domains tied to the variant) VH: EIQLVQSGAEVKKPGSSVKVSCKVTGHSITRGSSWHWMRQAPGQGLEWIGYIHYGGGTSYNPSLKSRATLTRDTSTNTAYMELSSLRSEDTAFYFCARYSYDITYRWFFDVWGQGTLVTVSS VL: DIQMTQSPSTLSASVGDRVTITCRASQNIGTSIHWYQQKPGKAPKLLIKRASESISGVPSRFSGSGSGTEFTLTISSLQPDDFATYYCQQNNNWPLTFGQGTKVEVK | – | 3.7 | – | – | – | –
HM4 LM2 variant of humanized anti-MUC1 antibody SP66 (antibody, V domains shown, Humanized IgG expressed in CHO cells; only variable domains tied to the variant) VH: EIQLVQSGAEVKKPGSSVKVSCKVTGHSITRGSSWHWMRQAPGQGLEWIGYIHYGGGTSYNPSLKSRATLTRDTSTNTFYMELSSLRSEDTAFYFCARYSYDITYRWFFDVWGQGTLVTVSS VL: DIQMTQSPSTLSASVGDRVTITCRASQNIGTSIHWYQQKPGKAPKLLIKRASESISGVPSRFSGSGSGTEFTLTISSLQPDDFATYYCQQNNNWPLTFGQGTKVEVK | – | 2.1 | – | – | – | –
HM4 LM3 variant of humanized anti-MUC1 antibody SP66 (antibody, V domains shown, Humanized IgG expressed in CHO cells; only variable domains tied to the variant) VH: EIQLVQSGAEVKKPGSSVKVSCKVTGHSITRGSSWHWMRQAPGQGLEWIGYIHYGGGTSYNPSLKSRATLTRDTSTNTFYMELSSLRSEDTAFYFCARYSYDITYRWFFDVWGQGTLVTVSS VL: DIQMTQSPSTLSASVGDRVTITCRASQNIGTSIHWYQQKPGKAPKLLIKYASESISGVPSRFSGSGSGTEFTLTISSLQPDDFATYYCQQNNNWPLTFGQGTKVEVK | – | 1.5 | 9700 | 17600 | 5320 | 22300
HM5 LM2 variant of humanized anti-MUC1 antibody SP66 (antibody, V domains shown, Humanized IgG expressed in CHO cells; only variable domains tied to the variant) VH: EIQLVQSGAEVKKPGSSVKVSCKVTGHSITRGSSWHWMRQAPGQGLEWIGYIHYGGGTSYNPSLKSRITITRDTSTNTFYMELSSLRSEDTAFYFCARYSYDITYRWFFDVWGQGTLVTVSS VL: DIQMTQSPSTLSASVGDRVTITCRASQNIGTSIHWYQQKPGKAPKLLIKRASESISGVPSRFSGSGSGTEFTLTISSLQPDDFATYYCQQNNNWPLTFGQGTKVEVK | – | 1.4 | 14600 | 21300 | 7990 | 23700
HM5 LM3 variant of humanized anti-MUC1 antibody SP66 (antibody, V domains shown, Humanized IgG expressed in CHO cells; only variable domains tied to the variant) VH: EIQLVQSGAEVKKPGSSVKVSCKVTGHSITRGSSWHWMRQAPGQGLEWIGYIHYGGGTSYNPSLKSRITITRDTSTNTFYMELSSLRSEDTAFYFCARYSYDITYRWFFDVWGQGTLVTVSS VL: DIQMTQSPSTLSASVGDRVTITCRASQNIGTSIHWYQQKPGKAPKLLIKYASESISGVPSRFSGSGSGTEFTLTISSLQPDDFATYYCQQNNNWPLTFGQGTKVEVK | – | 0.9 | – | – | – | –
